In PMC12311895 (2025):
Where no end group is shown, it is not given here.

Molecular target: T1, MBP-PDZ protein (Erbin PDZ) with a single cysteine, conjugated to DNA (UniProt Q96RT1 1321-1410, ATTO 532 (labelled with ATTO 532-NHS); amine-modified DNA oligonucleotide coupled through sulfo-SMCC to the single cysteine between MBP and PDZ)
T1 chain: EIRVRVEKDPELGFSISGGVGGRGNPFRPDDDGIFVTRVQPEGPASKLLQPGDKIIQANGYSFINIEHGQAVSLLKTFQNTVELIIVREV
Experiment: FP; no DNA attached to MBP-PDZ

Kd: 0.2 µM
Binder: CGAGRGSIDTWV (also: ATTO 655 label (site not given here)) [ATTO 655-labeled target peptide]
